Test results as given in publication PMC6391492, “Native mass spectrometry identifies an alternative DNA-binding pathway for BirA from Staphylococcus aureus”.

Key:
[1] = molecular target: S. aureus BirA (biotin retention protein A, biotin protein ligase), strain Mu50, wild type (S. aureus strain Mu50); assay: native MS; holo proteins (pre-incubated with 500 µM biotin, 1 mM ATP, 1 mM MgCl2 on ice, then buffer exchanged), no DNA, 10 µM protein in 200 mM ammonium acetate pH 6.85; dimer to monomers
[2] = molecular target: S. aureus BirA (biotin retention protein A, biotin protein ligase), strain Mu50, wild type (S. aureus strain Mu50); assay: native MS; holo proteins, 10 µM, with 5 µM SabioO oligonucleotide with only one BirA half site, 200 mM ammonium acetate pH 6.9, 4 °C at least 1 hour
[3] = molecular target: EcBirA (Escherichia coli, UniProt P06709 1-321); assay: native nESI-MS; holo (biotinyl-5'-AMP); two subunits on DNA; nESI-MS: 200 mM ammonium acetate pH 6.9, 10 uM protein, 5 uM DNA, 4 C >=1 h; EMSA: 50 mM Tris pH 8.0, 50 mM NaCl, 0.1 mM biotin, 1 mM ATP, 1 mM MgCl2, 10% glycerol, 10 nM DNA, room temperature 30 min; conditions: protein: recombinant; chain copies: 2; label: none
[4] = molecular target: EcBirA-R119W (Escherichia coli, UniProt P06709 1-321, R119W); assay: native nESI-MS; holo (biotinyl-5'-AMP); two subunits on DNA; 10 uM protein; nESI-MS: 200 mM ammonium acetate pH 6.9, 10 uM protein, 5 uM DNA, 4 C >=1 h; EMSA: 50 mM Tris pH 8.0, 50 mM NaCl, 0.1 mM biotin, 1 mM ATP, 1 mM MgCl2, 10% glycerol, 10 nM DNA, room temperature 30 min; conditions: protein: recombinant; label: none
[5] = molecular target: T1, SaBirA (Staphylococcus aureus Mu50, UniProt A0A0H3JRH8 1-323); assay: native nESI-MS; apo; one monomer on DNA, no dimer; nESI-MS: 200 mM ammonium acetate pH 6.9, 10 uM protein, 5 uM DNA, 4 C >=1 h; EMSA: 50 mM Tris pH 8.0, 50 mM NaCl, 0.1 mM biotin, 1 mM ATP, 1 mM MgCl2, 10% glycerol, 10 nM DNA, room temperature 30 min; conditions: protein: recombinant; label: none; blunt
[6] = molecular target: T2, SaBirA-F123G (Staphylococcus aureus Mu50, UniProt A0A0H3JRH8 1-323, F123G); assay: native nESI-MS; apo; one subunit on DNA; nESI-MS: 200 mM ammonium acetate pH 6.9, 10 uM protein, 5 uM DNA, 4 C >=1 h; EMSA: 50 mM Tris pH 8.0, 50 mM NaCl, 0.1 mM biotin, 1 mM ATP, 1 mM MgCl2, 10% glycerol, 10 nM DNA, room temperature 30 min; conditions: protein: recombinant; label: none; blunt
[7] = molecular target: T2, SaBirA-F123G; assay: EMSA; holo; biotin, ATP, Mg2+; nESI-MS: 200 mM ammonium acetate pH 6.9, 10 uM protein, 5 uM DNA, 4 C >=1 h; EMSA: 50 mM Tris pH 8.0, 50 mM NaCl, 0.1 mM biotin, 1 mM ATP, 1 mM MgCl2, 10% glycerol, 10 nM DNA, room temperature 30 min; conditions: protein: recombinant, label: none
[8] = molecular target: T2, SaBirA-F123G; assay: native nESI-MS; apo; nESI-MS: 200 mM ammonium acetate pH 6.9, 10 uM protein, 5 uM DNA, 4 C >=1 h; EMSA: 50 mM Tris pH 8.0, 50 mM NaCl, 0.1 mM biotin, 1 mM ATP, 1 mM MgCl2, 10% glycerol, 10 nM DNA, room temperature 30 min; conditions: protein: recombinant; label: none; blunt
[9] = molecular target: T1, SaBirA; assay: as above; conditions: protein: recombinant; label: none; blunt
[10] = molecular target: T1, SaBirA; assay: native nESI-MS; apo; two subunits on DNA; nESI-MS: 200 mM ammonium acetate pH 6.9, 10 uM protein, 5 uM DNA, 4 C >=1 h; EMSA: 50 mM Tris pH 8.0, 50 mM NaCl, 0.1 mM biotin, 1 mM ATP, 1 mM MgCl2, 10% glycerol, 10 nM DNA, room temperature 30 min; conditions: protein: recombinant; label: none; blunt
[11] = molecular target: T1, SaBirA; assay: EMSA; holo; biotin, ATP, Mg2+; up to 2 uM; nESI-MS: 200 mM ammonium acetate pH 6.9, 10 uM protein, 5 uM DNA, 4 C >=1 h; EMSA: 50 mM Tris pH 8.0, 50 mM NaCl, 0.1 mM biotin, 1 mM ATP, 1 mM MgCl2, 10% glycerol, 10 nM DNA, room temperature 30 min; conditions: protein: recombinant; label: none; blunt

“S. aureus BirA (biotin retention protein A, biotin protein ligase), strain Mu50, wild type (enzyme)” showed a stoichiometry N [1] of 2 and a stoichiometry N [2] of 2.

B1: EcbioO (dsDNA)
DNA 1: TAATCGACTTGTAAACCAAATTGAAAAGATTTAGGTTTACAAGTCTACAC
DNA 2: GTGTAGACTTGTAAACCTAAATCTTTTCAATTTGGTTTACAAGTCGATTA
B1: binds [3]; binds [4].

B2: HS1m SabioO (first half-site mutated) (dsDNA)
DNA 1: TTACACAGACGATTATTAATTATAAAAGTTTACATTCG
DNA 2: CGAATGTAAACTTTTATAATTAATAATCGTCTGTGTAA
B2: binds [5]; binds [6].

B3: SabioO (dsDNA)
DNA 1: CCTTAAATGTAAACTTTTATAATTAATAAGTTTACATTTAAG
DNA 2: CCTTAAATGTAAACTTATTAATTATAAAAGTTTACATTTAAGG
B3: binds [7].

B4: HSm SabioO (both half-sites mutated) (dsDNA)
DNA 1: TTACACAGACGATTATTAATTATAAAAAGCAGACACCG
DNA 2: CGGTGTCTGCTTTTTATAATTAATAATCGTCTGTGTAA
B4: no binding [8]; no binding [9].

B5: SabioY (full strands) (dsDNA)
DNA 1: AACTTATTGTAAACTTTTCATTTCTTAAAGTTTACAATGGTGCT
DNA 2: AGCACCATTGTAAACTTTAAGAAATGAAAAGTTTACAATAAGTT
B5: binds [10]; binds ([7]; blunt).

B6: HS2m SabioO (second half-site mutated) (dsDNA)
DNA 1: TTAAATGTAAACTTATTAATTATAAAAAGCAGACACCG
DNA 2: CGGTGTCTGCTTTTTATAATTAATAAGTTTACATTTAA
B6: no binding [11].
